Measured values from publication PMC6794372.

Tests used:
[1] = target: PRA, recombinant C-terminal domain of MYH9, His-SUMO tag removed; test: negative-stain electron microscopy; purified PRA (5 mM) for 1 h at 4°C in 50 mM Tris, 150 mM NaCl, 10% glycerol, 3 mM CaCl2; supernatant after centrifugation, 1% uranyl acetate
[2] = target: PRA, recombinant C-terminal domain of MYH9, His-SUMO tag removed; test: non-reducing SDS-PAGE and Western blot; PRA (5 mM) alone or pre-incubated with S100A4 (10 mM, 3 mM CaCl2) at 4°C for 1 h; without DTT; blot with anti-MYH9 pAb

stoichiometry N [1]: 2
stoichiometry N [2]: 2
Substance: PRA, recombinant C-terminal domain of MYH9, His-SUMO tag removed (domain or fragment)
